Experimental data from US20240327505A1 (published 2024).

B1: AB-009080 (antibody, V domains shown)
VH: QVQLQQWGAGLLKPSETLSLTCAVYGGSFSGYYWSWIRQPPGKGLEWIGEINHSGSTNYNPSLKSRVTISVDTSKNQFSLKLSSVTAADTAVYYCARGLPVTTFYYYYYGMDVWGQGTTVTVSS
VL: not shown
B2: AB-009083 (antibody, V domains shown)
VH: EVHLLESGGGLVQPGGSLTLTCAASGFSFGNYVMGWVRQAPGKGLEWVSSIFGSGANPHYGGSVKGRFTISRDNSQNTLFLQMDSLTAEDTAVYYCARDGGTMVGGIITGGFNYFDSWGQGTLVTVSS
VL: EIVLTQSPASLSLSPGGWATLSCRASRSIGNSLAWYQQRPGQAPRLLIYDASNRATGIPARFSGSGSGTDFTLTISSLEPEDFAIYYCQQRNSWPPLYTFGQGTKLEIK
B3: AB-009106 (antibody, V domains shown)
VH: QVQLAQSGAEVKRPGASVKVSCKASGFDLTTYGVGWVRQAPGQGLEWMGWISGSSGDTHYAQQFQDRVTMTTDTPTSTAYMELRSLRSDDTAVYYCVRENIAHYGSRTFLVRYYRGMDVWGQGTTVTVAS
VL: QSALTQPASVSGSPGQSITITCTGSSSDIGGFDFVSWYQQYPGKAPKLVISEVTNRPSGVSIRFSGSKSGNTASLTISGLQAEDEADYYCSSYASSYPTTNTRVFGTGTKVTVL
B4: AB-009110 (antibody, V domains shown)
VH: QVQLVQSGAEVKEPGASVKVSCNASGYIFTSYGISWVRQAPGQGLEWVGWISGNNGNTNYAQKFQGRVTLTTDTSTSTAYLELRSLTSADTGVYFCARARLPSAYWGPGTLLTVSS
VL: EILLTQSPATLSVSPGERGSLSCRASQSVGTNLAWYQQKPGQAPRLLIYGASARATGIPARFSGSGSGTEFTLTISSLQSEDFGVYYCQQYNDWPPWTFGQGTKVEIK
B5: AB-009214 (antibody, V domains shown)
VH: QVQLVESGGGVVQPGRSLRLSCAASGFTFSSYGMHWVRQAPGKGLEWVAVIWYDGSNKYYADSVKGRFTISRDNSKNTLYLQMNSLRAEDTAVYYCARDEPPSYYGSGSRFDYWGQGTLVTVSS
VL: SYELTQPPSVSVSPGQTARITCSGDALPKKYAYWYQQKSGQAPVLVIYEDSKRPSGIPERFSGSSSGTMATLTISGAQVEDEADYYCYSTDSSGNHWVFGGGTKLTVL
B6: AB-009226 (antibody, V domains shown)
VH: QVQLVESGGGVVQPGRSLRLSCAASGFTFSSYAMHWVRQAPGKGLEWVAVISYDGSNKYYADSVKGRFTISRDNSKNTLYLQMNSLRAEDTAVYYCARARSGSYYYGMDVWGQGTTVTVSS
VL: QSALTQPASVSGSPGQSITISCTGTSSDVGGYNYVSWYQQHPGKAPKLMIYEVSNRPSGVSNRFSGSKSGNTASLTISGLQAEDEADYYCSSYTSSSTLYVFGTGTKVTVL
B7: AB-009364 (antibody, V domains shown)
VH: QVQLVESGGGVVQPGRSLRLSCAASGFTFSSYAMHWVRQAPGKGLEWVAVISYDGSNKYYADSVKGRFTISRDNSKNTLYLQMNSLRAEDTAVYYCARDPDYYDSSSDAFDIWGQGTMVTVSS
VL: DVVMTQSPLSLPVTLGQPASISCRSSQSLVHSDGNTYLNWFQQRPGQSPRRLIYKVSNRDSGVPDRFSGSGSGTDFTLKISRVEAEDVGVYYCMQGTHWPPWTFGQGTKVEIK
B8: AB-009363 (antibody, V domains shown)
VH: EVQLLESGGGLVQPGGSLRLSCAASGFTFSSFAMTWIRQAPGKGLEWISAIGGDGGATYYVDSIKGRFTISRDNSKNTVYLHMNGLRVEDTAVYYCATPSPTRYSWGQGTLVTVSS
VL: DIVMTQSPDSLAVSLGERATLNCKSSQSVLYSSNNKNYLAWYQQKPGQPPKLLFYWASTRQSGVPDRFSGSGSGTDFTLTISSLQAEDGAVYYCQQYHKTPHTFGQGTKLEIK
B9: AB-009361 (antibody, V domains shown)
VH: EVQLVESGGGLAQPGGTLRLSCTGYGFIFNNYGLTWVRQAPGKGLEWLSVLSGSSYIKYEADSVRGRFTISRDNSKNTLYLEMNSLTAEDTAVYYCARKGVGSQDYGLDVWGQGTTVIVSS
VL: QSVLAQPPSASETPGQSVTISCSGSTSNIGSNFVYWYQQLPGTAPKLLIYRNTQRPSGVPDRFSGSKSATSASLAISGLRPEDEADYYCAAWDDSLSGGVFGTGTKVTVL
B10: AB-009343 (antibody, V domains shown)
VH: QAQLVESGGGVVQPGRSLRLSCAASGFTFNNHGMHWVRQVPGKGLEWVAVISYEGSKKDYADSVKGRFSISRDNSKQTVYLQMNSLRVEDTAVYYCAKDAAIFMIYPSRYFDLWGRGTLLTVSS
VL: SYELTQPPSMSVSPGQTASITCSGYILGDVSASWYQQKPGQSPVLIIYQDTKRPSGIPDRFSGSDSGNTATLTISGTQATDEADYYCQAWDSRTHVVFGGGTKLTVL
B11: AB-009329 (antibody, V domains shown)
VH: QLQLQESGPGLVKPSETLSLTCTVSGGSISSSSYYWGWIRQPPGKGLEWIGSIYYSGSTYYNPSLKSRVTISVDTSKNQFSLKLSSVTAADTAVYYCARHKMGWLQFAGWFDPWGQGTLVTVSS
VL: SSELTQDPAVSVALGQTVRITCQGDSLRSYYASWYQQKPGQAPVLVIYGKNNRPSGIPDRFSGSSSGNTASLTITGAQAEDEADYYCNSRDSSGNHWVFGGGTKLTVL
B12: AB-009291 (antibody, V domains shown)
VH: EVHLLESGGGLVQPGGSLRLSCAASGFTFTTYAMFWVRQAPGKGLEWVSAINAGGAKTHYADSVRGRFTISRDNSKSTLYLHMDRLRVGDTAIYYCAKVPSYIYDSRDDYLDFWGQGTLVTVSS
VL: EIVLTQSPATLSLSPGERATLSCRASQSVSSYLAWYQQRPGQAPRLLIYDASSRATGIPVRFSGSGSGTDFTLTISSLEPEDFAVYYCQQRSDWPLLTFGGGTKVEIK
B13: AB-009221 (antibody, V domains shown)
VH: EVQLVESGGGLVQPGGSLRLSCAASGFTVSSNYMSWVRQAPGKGLEWVSVIYSGGSTYYADSVKGRFTISRHNSKNTLYLQMNSLRAEDTAVYYCARDRNAFDIWGQGTMVIVSS
VL: DIQMTQSPSSLSASVGDRVSITCQASQDISNDLNWYQQKPGKAPKLLVYDASKLETGVPPRFSGSGSGTDFTFTISSLQPEDIATYYCQQYDNLPLYSFGQGTKLEIK
B14: AB-009269 (antibody, V domains shown)
VH: QVQLVQSGAEVKKPGASVKVSCKASGYTFTSYGISWVRQAPGQGLEWMGWISAYNGNTNYAQKLQGRVTMTTDTSTSTAYMELRSLRSDDTAVYYCAREGDCSGGSCYSGYYYYYGMDVWGQGTTVTVSS
VL: EIVLTQSPATLSLSPGERATLSCRASQSVSSYLAWYQQKPGQAPRLLIYDASNRATGIPARFSGSGSGTDFTLTISSLEPEDFAVYYCQQRSNWGTFGPGTKVDIK
B15: AB-009616 (antibody, V domains shown)
VH: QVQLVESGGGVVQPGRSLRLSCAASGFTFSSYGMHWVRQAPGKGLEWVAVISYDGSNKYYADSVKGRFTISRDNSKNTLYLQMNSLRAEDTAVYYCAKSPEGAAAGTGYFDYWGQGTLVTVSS
VL: SYVLTQPPSVSVAPGKTARITCGGNNIGSKSVHWYQQKPGQAPVLVVYDDSDRPSGIPERFSGSNSGNTATLTISRVEAGDEADYYCQVWDSSSDPWVFGGGTKLTVL
B16: AB-009666 (antibody, V domains shown)
VH: EVQLVESGGGLVQPGGSLRLSCAASGFTFSSYDMHWVRQATGKGLEWVSTIGTAGDTYYPGSVKGRFTISRENAKNSLYLQMNSLRAEDTAVYYCARVNYDSSGYPTYWYFDLWGRGTLVTVSS
VL: DIQMTQSPSSLSASVGDRVTITCRASQSISRYLNWYQQKPGKAPKLLIYAASSLQSGVPSRFSGSGSGTDFTLTISSLQPEDFATYNCQQSYSSPPWTFGQGTKVEIK
B17: AB-009747 (antibody, V domains shown)
VH: QVQLVESGGGVVQPGGSLRLSCAASGFTFSNYGMHWVRQAPGKGLEWVAFIRYDGSNEYYADSVKGRFTISRDNSKNTLYLHMNSLRPEDTAVYYCAKQGLLSNYYYGMDVWGQGTTVTVSS
VL: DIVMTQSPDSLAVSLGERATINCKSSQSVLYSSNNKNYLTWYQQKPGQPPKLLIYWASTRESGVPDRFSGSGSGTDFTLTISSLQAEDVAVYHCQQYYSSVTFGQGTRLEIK
B18: AB-009620 (antibody, V domains shown)
VH: QITLKESGPTLVKPTQTLTLTCTFSGFSLSTSGVGVGWIRQPPGKALEWLALIYWDDDKRYSPSLKSRLTITKDTSKNQVVLTMTNMDPVDTATYYCAHHEVATVFDYWGQGTLVTVSS
VL: QSALTQPASVSGSPGQSITISCTGTSSDVGAYNYVSWYQQHPGKAPKLMIYEVSNRPSGVSNRFSGSKSGNTASLTISGLQAEDEADYYCSSYTSSSTVFGGGTKLTVL
B19: AB-009661 (antibody, V domains shown)
VH: QVQLVESGGGVVQPGRSLRLSCAASGFTFSSYGMHWVRQAPGKGLEWVAVISYDGSNKYYADSVKGRFTISRDNSKNTLYLQMNSLRAEDTAVYYCAKDYGDYGGMDVWGQGTTVTVSS
VL: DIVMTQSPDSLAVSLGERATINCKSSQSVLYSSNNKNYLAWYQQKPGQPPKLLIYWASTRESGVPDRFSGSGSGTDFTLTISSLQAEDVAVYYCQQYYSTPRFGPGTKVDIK
B20: AB-009760 (antibody, V domains shown)
VH: EVQLVQSGAEVKKPGESLKISCKGSGYSFTSYWIGWVRQMPGKGLEWMGIIYPGDSDTRYSPSFQGQVTISADKSISTAYLQWSSLKASDTAMYYCARSRSSDYFDYWGQGTLVTVSS
VL: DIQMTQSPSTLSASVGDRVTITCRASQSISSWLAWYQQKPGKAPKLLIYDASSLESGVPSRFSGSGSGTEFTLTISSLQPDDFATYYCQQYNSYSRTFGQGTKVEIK
B21: AB-009769 (antibody, V domains shown)
VH: EVQLVESGGGLVQPGGSLRLSCAASGFTFSSYWMSWVRQAPGKGLEWVANIKQDGSEKYYVDSVKGRFTISRDNAKNSLYLQMNSLRAEDTAVYYCARSPEVLWFGDPVLDNWFDPWGQGTLVTVSS
VL: SYELTQPPSVSVSPGQTARITCSGDALPKQYAYWYQQKPGQAPVLVIYKDSERPSGIPERFSGSSSGTTVTLTISGVQAEDEADYYCQSADSSGTYPVVFGGGTKLTVL

These binders were tested against SARS-CoV-2 Spike (S) trimer (SARS-CoV-2, UniProt P0DTC2 16-1213) (assay: ELISA on coated S trimer, 1:50).

Compared with B1, B2 is higher in “OD 450 nm” value: 0.166 OD for the first, 0.249 OD for the second.

First: B3
Second: B4
The “OD 450 nm” value of the first is higher: 0.1 OD for the first, 0.081 OD for the second.

Going from B5 to B6, the “OD 450 nm” value rises from 0.691 OD to 2.33 OD.

Compared with B7, B8 is higher in “OD 450 nm” value: 1.06 OD for the first, 2.94 OD for the second.

Compared with B9, B10 is lower in “OD 450 nm” value: 1.39 OD for the first, 0.459 OD for the second.

Compared with B11, B12 is higher in “OD 450 nm” value: 0.235 OD for the first, 2.26 OD for the second.

These binders were tested against SARS-CoV-2 spike S1 protein (SARS-CoV-2, UniProt P0DTC2 16-685) (assay: not given).

Compared with B13, B14 is 2-fold lower in Kd: 34 nM for the first, 16.7 nM for the second. The second binds more tightly here.

B15 and B16 are within 1.5-fold of each other in Kd: 13.3 nM for the first, 11.9 nM for the second.

Binder B17 has a Kd of 45.2 nM.

Going from B13 to B14, the koff falls from 0.00128 s⁻¹ to 0.000643 s⁻¹ (2-fold).

B15 and B16 are within 1.5-fold of each other in koff: 0.000755 s⁻¹ for the first, 0.000546 s⁻¹ for the second.

With B17 the koff was 0.00379 s⁻¹.

B13 and B14 are within 1.5-fold of each other in kon: 37700 M⁻¹ s⁻¹ for the first, 38500 M⁻¹ s⁻¹ for the second.

B15 and B16 are within 1.5-fold of each other in kon: 56900 M⁻¹ s⁻¹ for the first, 45900 M⁻¹ s⁻¹ for the second.

For B17, the kon was 83700 M⁻¹ s⁻¹.

These binders were tested against SARS-CoV-2 spike receptor-binding domain (RBD) (SARS-CoV-2, UniProt P0DTC2 319-541) (assay: not given).

Going from B13 to B14, the Kd falls from 26.4 nM to 12 nM (2.2-fold).

B15 and B16 are within 1.5-fold of each other in Kd: 3 nM for the first, 3.04 nM for the second.

First: B13
Second: B14
The koff of the first is 1.8-fold higher: 0.00121 s⁻¹ for the first, 0.000675 s⁻¹ for the second.

Compared with B15, B16 is 2.2-fold higher in koff: 0.000287 s⁻¹ for the first, 0.00062 s⁻¹ for the second.

For B17, the koff was 0.00105 s⁻¹.

B13 and B14 are within 1.5-fold of each other in kon: 45800 M⁻¹ s⁻¹ for the first, 56300 M⁻¹ s⁻¹ for the second.

First: B15
Second: B16
The kon of the first is 2.1-fold lower: 95800 M⁻¹ s⁻¹ for the first, 204000 M⁻¹ s⁻¹ for the second.

What follows are binders tested against SARS-CoV-2 spike S2 protein (SARS-CoV-2, UniProt P0DTC2 686-1213) (assay: not given).

B1 and B2 are within 1.5-fold of each other in Kd: 0.111 nM for the first, 0.164 nM for the second.

Compared with B3, B5 is 560-fold higher in Kd: 0.0413 nM for the first, 23.2 nM for the second. The first binds more tightly here.

First: B6
Second: B8
The Kd of the first is 6.9-fold lower: 27.9 nM for the first, 192 nM for the second. The first binds more tightly here.

Work on B12 yielded a Kd of 0.0174 nM.

Compared with B1, B2 is 1.8-fold higher in koff: 2.79e-07 s⁻¹ for the first, 4.95e-07 s⁻¹ for the second.

Going from B3 to B6, the koff rises from 2.63e-07 s⁻¹ to 0.000783 s⁻¹ (3000-fold).

Compared with B8, B12 is 4900-fold lower in koff: 0.0016 s⁻¹ for the first, 3.28e-07 s⁻¹ for the second.

B1 and B2 are within 1.5-fold of each other in kon: 2520 M⁻¹ s⁻¹ for the first, 3010 M⁻¹ s⁻¹ for the second.

Compared with B3, B6 is 4.4-fold higher in kon: 6370 M⁻¹ s⁻¹ for the first, 28100 M⁻¹ s⁻¹ for the second.

Compared with B8, B12 is 2.3-fold higher in kon: 8330 M⁻¹ s⁻¹ for the first, 18900 M⁻¹ s⁻¹ for the second.

Molecular target: SARS-CoV-2 spike S1 protein (SARS-CoV-2, UniProt P0DTC2 16-685)
Assay: not given
Remark: another data set of the same source

First: B18
Second: B19
The Kd of the first is 3.1-fold lower: 27.5 nM for the first, 84 nM for the second. The first binds more tightly here.

First: B20
Second: B21
The Kd of the first is 25-fold lower: 4.16 nM for the first, 106 nM for the second.

First: B18
Second: B19
The koff of the first is 5.5-fold lower: 0.00078 s⁻¹ for the first, 0.00428 s⁻¹ for the second.

Compared with B20, B21 is 7.3-fold higher in koff: 0.000267 s⁻¹ for the first, 0.00194 s⁻¹ for the second.

Going from B18 to B19, the kon rises from 28400 M⁻¹ s⁻¹ to 51000 M⁻¹ s⁻¹ (1.8-fold).

Compared with B20, B21 is 3.5-fold lower in kon: 64000 M⁻¹ s⁻¹ for the first, 18400 M⁻¹ s⁻¹ for the second.
